# According to publication PMC5951591, “Transcriptional repression by ApiAP2 factors is central to chronic toxoplasmosis”:
# B1: PBM motif validation probe (WT, 59 bp) (dsDNA)
# DNA 1: TTTGTAATATACGCTCCACCGCGTGCACCCCCCTCGACATGCCCCCGTATTGCTGATCG
# DNA 2: CGATCAGCAATACGGGGGCATGTCGAGGGGGGTGCACGCGGTGGAGCGTATATTACAAA
# B2: PBM motif validation, unlabeled poly(dC) competitor (dsDNA)
# DNA 1: B1 DNA 1
# DNA 2: B1 DNA 2
# B3: PBM scrambled cold competitor (60 bp) (dsDNA)
# DNA 1: TACCCTGCCTCTTGTAGTAGTAACGTAAAAGAGGTAACGTGGTCAAATGCGATCAGAGAT
# DNA 2: ATCTCTGATCGCATTTGACCACGTTACCTCTTTTACGTTACTACTACAAGAGGCAGGGTA
# Experiments:
# GST-AP2IV-4 (AP2 domain) [1] = target: T1, GST-AP2IV-4 (AP2 domain) (Toxoplasma gondii, UniProt S8FCP8 782-854); assay: EMSA; 50 ng protein, 20 fmol probe; EMSA: 20 fmol probe, 50 ng protein, 6% PAGE, LightShift Chemiluminescent EMSA kit; buffer, salt, pH and temperature not stated; conditions: protein: recombinant; tags: GST (N-terminal, pGEX4T3); label: 5'-biotin; blunt
# GST-AP2IV-4 (AP2 domain) [2] = target: T1, GST-AP2IV-4 (AP2 domain); assay: competition; 300x excess unlabeled against N1; EMSA: 20 fmol probe, 50 ng protein, 6% PAGE, LightShift Chemiluminescent EMSA kit; buffer, salt, pH and temperature not stated; conditions: protein: recombinant; tags: GST (N-terminal, pGEX4T3); label: none; blunt
# GST-AP2IV-4 (AP2 domain) [3] = target: T1, GST-AP2IV-4 (AP2 domain); assay: competition; 300x excess unlabeled against N1; did not compete; EMSA: 20 fmol probe, 50 ng protein, 6% PAGE, LightShift Chemiluminescent EMSA kit; buffer, salt, pH and temperature not stated; conditions: protein: recombinant; tags: GST (N-terminal, pGEX4T3); label: none; blunt
binder,measurement,setting,value
B1,binding result,GST-AP2IV-4 (AP2 domain) [1],binds
B2,binding result,GST-AP2IV-4 (AP2 domain) [2],binds
B3,binding result,GST-AP2IV-4 (AP2 domain) [3],no binding
